Experiment [1] relates to S. epidermidis, S. lugdunensis and S. haemolyticus biofilms. Kind of experiment: CoNS biofilm eradication, crystal violet staining. The format is cell-based. The conditions noted are these: for Activity on preformed biofilm, crystal violet: 250 and 100 μg/mL for 4 h, all three CoNS. Here is the method: Dis. 209:1469-78 was followed. Briefly, S. epidermidis, S. lugdunensis and S. haemolyticus strains were inoculated into TSB with 2% glucose and the cultures were grown overnight. The cultures were diluted 1:50 in TSB to achieve an OD600˜0.1. Two hundred micro liter of the diluted culture was added to 1.8 ml of TSB media aliquoted into each well of a 24 well plate (˜5×10^5 CFU). The plates were kept at 37° C. under static conditions for 18 h, the contents were aspirated, the wells were washed twice with 2.0 ml of 1×PBS, and 1 mL of media+1 mL of the drug was added to each well and incubated at 37° C. for 0, 2, 4, and 24 h. TSB supplemented with 50 μg/ml Ca^++ was used for daptomycin treatment wells. The contents were aspirated out at the stipulated time points and the wells were washed with 2 ml of 1×PBS. The wells were allowed to dry at 37° C. for 15 min and stained with 1 mL of 1% CV for 5 min. The wells were washed with 1 mL of 1×PBS, air dried and observed for intensity of blue color.
0.1% CV was used for staining biofilms. Post staining and washing steps, 1 mL 30% acetic acid is added to each well, incubated in RT for 5-10 min, contents in the well are mixed thoroughly and OD was read at 570 nm.

The test system of the next experiment is S. aureus. The experiment is described as follows: MIC and checkerboard synergy (broth microdilution) on planktonic cells. In kind it is cell-based, Staphylococcus aureus. The settings on record: for MIC: Staphylococcus aureus. Here is the method: MIC was determined using a modified Clinical and Laboratory Standards Institute (CLSI) broth microdilution procedure described earlier in Vipra, et al. (2012) “Antistaphylococcal activity of bacteriophage derived chimeric protein P128” BMC Microbiol. 12:41-50; and Clinical and Laboratory Standards Institute (2012) “Methods for Dilution Antimicrobial Susceptibility Tests for Bacteria That Grow Aerobically; Approved Standard” CLSI document M07-A9.9 ed. Wayne, Pa. USA. In order to determine effects of combinations of P128 with antibiotics, combinations of various dilutions of P128 and a second drug were tested for growth inhibition using a microdilution checkerboard technique. See Lu, et al. (2013) “In vitro activity of sodium new houttuyfonate alone and in combination with oxacillin or netilmicin against methicillin-resistant Staphylococcus aureus” PLoS One 8:e68053. Briefly, S. aureus culture at a final cell number of 5×10^5 CFU/mL was added to wells of 96-well microtiter plates (precoated with 0.5% BSA), containing two-fold dilutions of P128 and the second drug in cation adjusted Mueller Hinton Broth (CAMHB). The plates were incubated at 37° C. for 24 h and the individual MICs and the combination MICs were read. The fractional inhibitory concentration index (FICI) was determined using the following equation: FICI=(MIC of drug A in the combination/MIC of drug A alone)+(MIC of drug B in the combination/MIC of drug B alone). The combination was considered to be synergistic when the FICI was ≤0.5; additive when FICI was 0.5-1.0; indifferent when FICI was 1-4 and antagonistic when FICI≥4. The experiments were performed in triplicate and repeated twice.
In order to find out whether P128 can act in a synergistic manner with commonly used antibiotics, MIC based growth inhibition assays were performed. MIC based synergy was studied by checkerboard method by determining the FIC index using the method of Lu, et at (2013) “In vitro activity of sodium new houttuyfonate alone and in combination with oxacillin or netilmicin against methicillin-resistant Staphylococcus aureus” PLoS One 8:e68053. […] Similarly.
Bacterial cultures at a final cell number of 5×10^5 CFU/mL was added to wells of 96-well microtiter plates (precoated with 0.5% BSA), containing two-fold dilutions of P128 and the second drug in cation adjusted Mueller Hinton Broth (CAMHB). The plates were incubated at 37° C. for 24 h and the individual MICs and the combination MICs were read. The fractional inhibitory concentration index (FICI) was determined using the following equation: FICI=(MIC of drug A in the combination/MIC of drug A alone)+(MIC of drug B in the combination/MIC of drug B alone). The combination was considered to be synergistic when the FICI was ≤0.5; additive when FICI was 0.5-1.0; indifferent when FICI was 1-4 and antagonistic when FICI≥4.
A general note: In broth dilution the organism is exposed to a series of concentrations in liquid medium.

The test system of a further experiment is S. aureus COL. The format is in vivo, BALB/c mice. The conditions noted are these: P128 0.2 mg/kg ip single dose, or both. Here is the method: A standard mouse model of S. aureus bacteremia was used. Zuluaga, et al. (2006) “Neutropenia induced in out bred mice by a simplified low-dose cyclophosphamide regimen: Characterization and applicability to diverse experimental models of infectious diseases” BMC Infect. Dis. 6:55-64. Female BALB/c mice of 8-9 weeks age were challenged by intraperitoneal route with S. aureus COL at 10^9 CFU per animal. After the bacterial challenge, animals were treated through parenteral routes with P128 alone or P128 in combination with standard of care antibiotics (e.g., vancomycin, daptomycin, linezolid, oxacillin, etc.). Animals were monitored for survival for a period of 72 hours. In this model of infection, normal as well as immunocompromised (neutropenia induced by cyclophosphamide) mice were used to evaluate P128 and antibiotic-P128 combinations.
Eight to nine weeks old female BALB/c mice were challenged intraperitoneally with 10^9 CFU of S. aureus COL. At 2 hours post-infection, animals were treated with either P128 at 0.2 mg/kg via intraperitoneal route, or vancomycin at 55 mg/kg by subcutaneous route, or a combination of both by respective routes. Groups treated with only vancomycin or combination of P128 and vancomycin were administered a second dose of vancomycin 12 hours after the first dose.
In the same model, efficacy of daptomycin in combination with P128 was evaluated. At 2 hours post-infection, animals were treated with either P128 at 0.2 mg/kg administered by intraperitoneal route, or daptomycin at 12.5 mg/kg administered by subcutaneous route; or a combination of both administered by respective routes. Groups treated with only daptomycin or combination of P128 and daptomycin were administered a second dose of daptomycin 12 hours after the first daptomycin dose.

Setting [2] is: S. aureus COL 10^9 CFU ip, Vancomycin 55 mg/kg sc 2 doses, 26 mice per group.
[3] abbreviates: S. aureus COL, Daptomycin 12.5 mg/kg sc 2 doses, 24 mice per group.

Where “and” joins values, the source holds several entries; their conditions need not be identical. Equal entries are not always repeated. Where two headings read alike, the source gives them in different places.

On to `CC(=O)NC[C@H]1CN(c2ccc(N3CCOCC3)c(F)c2)C(=O)O1` [Linezolid, linezolid], for which, in experiment [1], the “Activity on preformed biofilm, crystal violet” value (from here on “Activity on preformed biofilm”) was “poor activity”. The MIC is > 32 µg/mL in the experiment with S. aureus (24 h, LRSA strain B9456, read-out: MIC (drug alone)) and 8 µg/mL in the experiment with S. aureus (24 h, LRSA strain B9457, read-out: MIC (drug alone)).

Turning to `CN[C@H](CC(C)C)C(=O)N[C@H]1C(=O)N[C@@H](CC(N)=O)C(=O)N[C@H]2C(=O)N[C@H]3C(=O)N[C@H](C(=O)N[C@H](C(=O)O)c4cc(O)cc(O)c4-c4cc3ccc4O)[C@H](O)c3ccc(c(Cl)c3)Oc3cc2cc(c3O[C@@H]2O[C@H](CO)[C@@H](O)[C@H](O)[C@H]2O[C@H]2C[C@](C)(N)[C@H](O)[C@H](C)O2)Oc2ccc(cc2Cl)[C@H]1O` [Vancomycin, vancomycin], in experiment [1], the “Activity on preformed biofilm” value is on record as “poor activity”. Besides, the “Survival at 72 h post infection” value with S. aureus COL (setting [2]) was found to be 46%. Also, the MIC was 1 µg/mL in the experiment with S. aureus (24 h, read-out: MIC (drug alone), S. aureus B9241 (gentamycin and ciprofloxacin resistant)); 1 µg/mL with S. aureus (ATCC29213, read-out: MIC over the strains, ATCC29213, BK1 and B9241); 1 µg/mL in the experiment on S. aureus (ATCC 29213 / MSSA, 24 h, read-out: MIC (drug alone), S. aureus ATCC 29213 (MSSA)); 1 µg/mL in the experiment with S. aureus (MRSA, 24 h, read-out: MIC (drug alone), S. aureus BK1 (MRSA, ciprofloxacin resistant)); 32 µg/mL in the experiment on S. aureus (VRSA, 24 h, read-out: MIC (drug alone), VRSA strain VRS 1); 32 µg/mL with S. aureus (VRSA, 24 h, read-out: MIC (drug alone), VRSA strain VRS 2). Further, the MIC with S. aureus (VRSA, 24 h, read-out: MIC (drug alone), VRSA strain VRS 3a) amounted to 32 µg/mL; in the experiment with S. aureus (VRSA, 24 h, read-out: MIC (drug alone), VRSA strain VRS 3b) it was 32 µg/mL; in the experiment on S. aureus (VRSA, 24 h, read-out: MIC (drug alone), VRSA strain VRS 4), 32 µg/mL; in the experiment with S. aureus (VRSA, 24 h, read-out: MIC (drug alone), VRSA strain VRS 10), 16 µg/mL.

On to `CCCCCCCCCC(=O)N[C@@H](Cc1c[nH]c2ccccc12)C(=O)N[C@H](CC(N)=O)C(=O)N[C@@H](CC(=O)O)C(=O)N[C@@H]1C(=O)NCC(=O)N[C@@H](CCCN)C(=O)N[C@@H](CC(=O)O)C(=O)N[C@H](C)C(=O)N[C@@H](CC(=O)O)C(=O)NCC(=O)N[C@H](CO)C(=O)N[C@@H]([C@H](C)CC(=O)O)C(=O)N[C@@H](CC(=O)c2ccccc2N)C(=O)O[C@@H]1C` [Daptomycin, daptomycin], for which the “Activity on preformed biofilm” value in experiment [1] is recorded as “poor activity”. In the experiment with S. aureus COL (setting [3]), the “Survival at 72 h post infection” value was found to be 45%.

B1: P128: anti-staphylococcal chimeric protein: phage tail associated muralytic enzyme (TAME) cell wall-degrading region plus staphylococcus-specific binding region; SEQ ID NO: 1 (protein)
chain: MSLDSLKKYNGKLPKHDPSFVQPGNRHYKYQCTWYAYNRRGQLGIPVPLWGDAADWIGGAKGAGYGVGRTPKQGACVIWQRGVQGGSPQYGHVAFVEKVLDGGKKIFISEHNYATPNGYGTRTIDMSSAIGKNAQFIYDKKLETPNTGWKTNKYGTLYKSESASFTPNTDIITRTTGPFRSMPQSGVLKAGQTIHYDEVMKQDGHVWVGYTGNSGQRIYLPVRTWNKSTNTLGVLWGTIK
modifications: P128 chimera
Regarding B1, in experiment [1] (P128 8 μg/mL (1×MIC), SOC antibiotics 250×MIC or 100×MIC), the “Removal of visual biomass” value is on record as “removed all visual biomass”. Also, in experiment [1] (P128 at 1×MIC (8 μg/mL)), the “Time of treatment to eliminate the biofilms” value is ≤ 2 h. Besides, in experiment [1] (even after 24 h, all three CoNS sp.), the “OD570 of crystal violet vs cell control” value is on record as “significant drop in OD”. Moreover, the “Survival at 72 h post infection” value in the experiment on S. aureus COL (setting [2]) is 30%; with S. aureus COL (setting [3]), 45%. The “MIC over the strains” value in the experiment with S. aureus (ATCC29213, BK1 and B9241) lay within 4 to 8 µg/mL. Also, the “MIC (drug alone)” value in the experiment with S. aureus (LRSA strain B9456) is 2 µg/mL; in the experiment with S. aureus (LRSA strain B9457) it was 1 µg/mL; with S. aureus (MRSA strain BK22) it was 0.45 µg/mL; in the experiment on S. aureus (S. aureus ATCC 29213 (MSSA)), 4 µg/mL; in the experiment on S. aureus (S. aureus B9241 (gentamycin and ciprofloxacin resistant)), 8 µg/mL; in the experiment on S. aureus (S. aureus BK1 (MRSA, ciprofloxacin resistant)), 4 µg/mL. Moreover, the “MIC (drug alone)” value with S. aureus (S. aureus BK18) is 2 µg/mL and 4 µg/mL; with S. aureus (VRSA strain VRS 1), 1.9 µg/mL; with S. aureus (VRSA strain VRS 2), 1.9 µg/mL; in the experiment with S. aureus (VRSA strain VRS 3a) it was 1.9 µg/mL; in the experiment with S. aureus (VRSA strain VRS 3b), 0.97 µg/mL; in the experiment with S. aureus (VRSA strain VRS 4), 1.9 µg/mL. Also, the “MIC (drug alone)” value in the experiment on S. aureus (VRSA strain VRS 10) was determined as 3.9 µg/mL.

As a reminder, the MIC is the smallest concentration in the dilution series that meets the test's criterion for growth inhibition.

The values are drawn from patent US20190282673A1, “STAPHTAME ACTIVITY ON BIOFILMS” (priority 2016, published 2019).
